Measurements from patent US7122343 (WARF WISCONSIN ALUMNI RESEARCH FOUNDATION, dated 2006).

Biological target: T1, hMre11-hRad50 protein complex (human, UniProt P49959 2-708; Q92878 1-1312)
T1 construct: Endogenous complex from human cells; It also holds p95 and a protein of about 400 kDa; also called hMre11/hRad50 complex; hRad50/hMre11 complex
Assay: co-immunoprecipitation

T1 sequence (P49959 2-708 limits assumed, chain 1 of 2): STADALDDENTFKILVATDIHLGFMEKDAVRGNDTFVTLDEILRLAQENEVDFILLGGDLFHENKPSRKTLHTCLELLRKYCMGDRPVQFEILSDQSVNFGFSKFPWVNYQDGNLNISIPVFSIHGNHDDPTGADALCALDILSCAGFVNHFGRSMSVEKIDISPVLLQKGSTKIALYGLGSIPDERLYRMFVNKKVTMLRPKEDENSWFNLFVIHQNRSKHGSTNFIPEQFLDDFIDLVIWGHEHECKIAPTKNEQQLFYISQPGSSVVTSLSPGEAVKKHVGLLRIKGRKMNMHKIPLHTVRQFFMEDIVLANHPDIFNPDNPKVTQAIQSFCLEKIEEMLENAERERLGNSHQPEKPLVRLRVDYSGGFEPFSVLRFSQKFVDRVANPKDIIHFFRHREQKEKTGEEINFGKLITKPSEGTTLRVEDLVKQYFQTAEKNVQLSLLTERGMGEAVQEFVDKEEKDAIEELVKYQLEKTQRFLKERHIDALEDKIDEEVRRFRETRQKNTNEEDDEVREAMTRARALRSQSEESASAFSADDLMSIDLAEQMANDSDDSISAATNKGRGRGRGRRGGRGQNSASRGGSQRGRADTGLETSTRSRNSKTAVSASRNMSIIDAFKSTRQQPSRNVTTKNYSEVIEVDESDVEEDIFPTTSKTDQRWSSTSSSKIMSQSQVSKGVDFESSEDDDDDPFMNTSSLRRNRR
T1 sequence (Q92878 whole entry, chain 2 of 2): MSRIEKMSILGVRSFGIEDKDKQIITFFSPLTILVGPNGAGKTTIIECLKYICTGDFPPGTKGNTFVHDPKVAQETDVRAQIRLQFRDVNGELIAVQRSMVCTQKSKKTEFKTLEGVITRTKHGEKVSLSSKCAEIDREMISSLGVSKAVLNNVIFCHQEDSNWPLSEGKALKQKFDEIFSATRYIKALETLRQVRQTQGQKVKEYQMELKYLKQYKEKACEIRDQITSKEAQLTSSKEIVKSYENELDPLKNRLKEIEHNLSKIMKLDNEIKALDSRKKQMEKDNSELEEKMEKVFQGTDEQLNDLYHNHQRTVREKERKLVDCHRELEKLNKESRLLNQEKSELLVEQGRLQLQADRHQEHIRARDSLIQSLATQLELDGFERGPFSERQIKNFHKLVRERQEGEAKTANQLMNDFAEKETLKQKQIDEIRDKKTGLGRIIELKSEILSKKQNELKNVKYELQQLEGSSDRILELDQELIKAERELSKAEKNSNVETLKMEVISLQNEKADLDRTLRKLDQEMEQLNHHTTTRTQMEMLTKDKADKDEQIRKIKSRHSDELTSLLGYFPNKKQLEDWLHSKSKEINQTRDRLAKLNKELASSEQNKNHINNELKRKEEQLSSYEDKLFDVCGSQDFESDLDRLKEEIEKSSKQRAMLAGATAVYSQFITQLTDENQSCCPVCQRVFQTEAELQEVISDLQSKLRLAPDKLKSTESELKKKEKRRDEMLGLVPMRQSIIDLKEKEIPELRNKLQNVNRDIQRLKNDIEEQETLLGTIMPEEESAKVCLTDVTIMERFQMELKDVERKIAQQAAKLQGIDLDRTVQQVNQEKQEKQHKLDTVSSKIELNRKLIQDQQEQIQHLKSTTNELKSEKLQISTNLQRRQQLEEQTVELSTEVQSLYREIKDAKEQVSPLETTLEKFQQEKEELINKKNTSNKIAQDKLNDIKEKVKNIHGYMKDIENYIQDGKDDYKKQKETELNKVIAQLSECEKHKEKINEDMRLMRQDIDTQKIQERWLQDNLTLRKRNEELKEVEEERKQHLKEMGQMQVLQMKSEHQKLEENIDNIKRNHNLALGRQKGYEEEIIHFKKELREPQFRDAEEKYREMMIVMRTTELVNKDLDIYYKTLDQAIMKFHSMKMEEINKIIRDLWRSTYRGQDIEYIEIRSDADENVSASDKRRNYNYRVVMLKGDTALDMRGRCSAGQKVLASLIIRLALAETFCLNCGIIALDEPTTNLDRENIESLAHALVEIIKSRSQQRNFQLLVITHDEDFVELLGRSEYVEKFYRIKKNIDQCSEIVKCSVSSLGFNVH

B1: hRad51 (other, human, UniProt Q06609 2-339, looked up)
chain: AMQMQLEANADTSVEEESFGPQPISRLEQCGINANDVKKLEEAGFHTVEAVAYAPKKELINIKGISEAKADKILAEAAKLVPMGFTTATEFHQRRSEIIQITTGSKELDKLLQGGIETGSITEMFGEFRTGKTQICHTLAVTCQLPIDRGGGEGKAMYIDTEGTFRPERLLAVAERYGLSGSDVLDNVAYARAFNTDHQTQLLYQASAMMVESRYALLIVDSATALYRTDYSGRGELSARQMHLARFLRMLLRLADEFGVAVVITNQVVAQVDGAAMFAADPKKPIGGNIIAHASTTRLYLRKGRGETRICKIYDSPCLPEAEAMFAINADGVGDAKD
notes: also called human Rad51 homolog
Q: Does B1 bind?
A: Result: no binding
